Measurements as given in publication PMC3000793.

Target: ASIC3-YFP (UniProt O35240)
Assay: FRET or BRET

Chain of UniProt O35240 (O35240 whole entry): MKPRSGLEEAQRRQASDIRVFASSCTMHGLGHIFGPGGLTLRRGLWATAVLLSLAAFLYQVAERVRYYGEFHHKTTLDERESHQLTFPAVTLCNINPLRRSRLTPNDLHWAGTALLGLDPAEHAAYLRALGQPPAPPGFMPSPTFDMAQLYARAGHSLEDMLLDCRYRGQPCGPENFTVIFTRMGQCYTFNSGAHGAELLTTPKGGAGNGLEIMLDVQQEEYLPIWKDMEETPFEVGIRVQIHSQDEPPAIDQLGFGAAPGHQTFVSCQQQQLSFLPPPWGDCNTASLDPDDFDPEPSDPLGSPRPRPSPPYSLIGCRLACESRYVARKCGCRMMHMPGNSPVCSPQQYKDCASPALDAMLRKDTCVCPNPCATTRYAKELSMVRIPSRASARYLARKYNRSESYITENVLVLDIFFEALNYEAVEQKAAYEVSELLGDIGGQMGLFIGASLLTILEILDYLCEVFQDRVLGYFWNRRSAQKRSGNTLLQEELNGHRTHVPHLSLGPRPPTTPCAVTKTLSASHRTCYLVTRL

**Q.** With “P2X5-CFP (from UniProt P51578 1-455) (receptor)” as the substance, how does the FRET signal (donor dequenching) read?
**A.** 20%
